The source of these data is PMC9239997, “Structural basis for mitoguardin-2 mediated lipid transport at ER-mitochondrial membrane contact sites” (Nature Communications, 2022).

To fix the notation:
B3: mouse MIGA2 residues 275-570, S292E/S295D (domain or fragment, mouse (Mus musculus), UniProt Q8BK03 275-570, looked up)
chain: GSLRLRADDEDSLTSEDEFFDATEIFESLQIGEYPLPLSRPAAAYEEALQLVKEGRVPCRTLRTELLGCYSDQDFLAKLHCVRQAFEGLLEERSNQIFFGEVGRQMVTGLMTKAEKSPKGFLESYEEMLSYALRPETWATTRLELEGRGVACMSFFDIVLDFILMDAFEDLENPPSSVLAVLRNRWLSDSFKETALATACWSVLKAKRRLLMVPDGFISHFYSVSEHVSPVLAFGFLGPKPQLSEVCAFFKHQIVQYLRDMFDLDNVRYTSVPALAEDILQLSRRRSEILLGYLGA
B4: phosphorylated FFAT motif peptide of mouse MIGA2 (residues 289-298) (peptide)
peptide: Ac-SED[pS]FF[pS]ATE-NH2
SMILES: CC(=O)N[C@@H](CO)C(=O)N[C@@H](CCC(=O)O)C(=O)N[C@@H](CC(=O)O)C(=O)N[C@@H](COP(=O)(O)O)C(=O)N[C@@H](Cc1ccccc1)C(=O)N[C@@H](Cc1ccccc1)C(=O)N[C@@H](COP(=O)(O)O)C(=O)N[C@@H](C)C(=O)N[C@H](C(=O)N[C@@H](CCC(=O)O)C(N)=O)[C@@H](C)O
notes: also called mMIGA2^pFFAT; source: synthetic peptide, purified by HPLC
B5: MSP domain of mouse VAPB (residues 1-125) (domain or fragment, mouse (Mus musculus), UniProt Q9QY76 1-125, looked up)
chain: MAKVEQVLSLEPQHELKFRGPFTDVVTTNLKLGNPTDRNVCFKVKTTVPRRYCVRPNSGVIDAGASLNVSVMLQPFDYDPNEKSKHKFMVQSMFAPPDTSDMEAVWKEAKPEDLMDSKLRCVFEL
notes: vesicle-associated membrane protein-associated protein B/C (VAPB), mouse, MSP domain, residues 1-125; In the liposome clustering (DLS) and tethered lipid transfer assays a His-tagged form (His-mVAPB) was used; also called mVAPB; wild-type mVAPB

[ ]: non-standard residue; d: D form. pS = N[C@@H](COP(=O)(O)O)C(=O)O

In one assay the target is T1, zMiga2-GST (Danio rerio, UniProt Q5BLE2).
T1 construct: gene miga2; LD targeting domain, residues 310-568, C-terminal GST fusion kept; E. coli
T1 sequence (Q5BLE2 310-568): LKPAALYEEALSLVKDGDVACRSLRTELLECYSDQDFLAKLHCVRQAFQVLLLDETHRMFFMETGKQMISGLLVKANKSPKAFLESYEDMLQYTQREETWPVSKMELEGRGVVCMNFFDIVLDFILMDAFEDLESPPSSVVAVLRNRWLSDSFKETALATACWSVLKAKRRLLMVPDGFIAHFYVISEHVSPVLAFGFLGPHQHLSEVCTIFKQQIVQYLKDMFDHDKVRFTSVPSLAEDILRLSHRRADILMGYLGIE
Briefly: preloading, glutathione bead wash, Clear Native-PAGE fluorescence. In kind it is binding. The note with it: labelled compound; probe of the displacement assay.

Assay [1] has as its target B5. Briefly: ITC; Microcal ITC200, 25 °C, buffer C (25 mM Tris-HCl pH 7.5, 150 mM NaCl, 4 mM β-mercaptoethanol); 20 injections of 2 μl; 1:1 binding model. The note with it: both partners purified. (ITC needs no label: the signal is the heat of the interaction.)
Assay [2] concerns the target T2, MSP domain of mouse VAPB (residues 1-125), K43L/K45L (mouse (Mus musculus), UniProt Q9QY76 1-125, K43L | K45L).
T2 construct: vesicle-associated membrane protein-associated protein B/C (VAPB), mouse, MSP domain, residues 1-125, K43L/K45L; also called mVAPB K43L/K45L
The assay is described as above. The conditions noted are these: both partners purified.

In assay [3] the target is T3, MSP domain of mouse VAPB (residues 1-125), K87L/K118L (mouse (Mus musculus), UniProt Q9QY76 1-125, K87L | K118L).
T3 construct: vesicle-associated membrane protein-associated protein B/C (VAPB), mouse, MSP domain, residues 1-125, K87L/K118L; also called mVAPB K87L/K118L
T3 sequence (Q9QY76 1-125 K87L/K118L): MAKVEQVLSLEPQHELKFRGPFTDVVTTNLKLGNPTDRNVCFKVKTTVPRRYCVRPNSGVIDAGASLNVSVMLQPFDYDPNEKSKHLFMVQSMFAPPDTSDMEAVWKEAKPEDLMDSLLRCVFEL
Described as above. The conditions noted are these: both partners purified.

For assay [4], the target named is T4, mouse MIGA2 residues 275-570 S292E (mouse, UniProt Q8BK03 275-570, S292E).
T4 construct: source: E. coli BL21 (DE3), purified as the wild type (Ni2+-chelated HiTrap, tag cleaved by TEV, size exclusion chromatography)
T4 sequence (looked up): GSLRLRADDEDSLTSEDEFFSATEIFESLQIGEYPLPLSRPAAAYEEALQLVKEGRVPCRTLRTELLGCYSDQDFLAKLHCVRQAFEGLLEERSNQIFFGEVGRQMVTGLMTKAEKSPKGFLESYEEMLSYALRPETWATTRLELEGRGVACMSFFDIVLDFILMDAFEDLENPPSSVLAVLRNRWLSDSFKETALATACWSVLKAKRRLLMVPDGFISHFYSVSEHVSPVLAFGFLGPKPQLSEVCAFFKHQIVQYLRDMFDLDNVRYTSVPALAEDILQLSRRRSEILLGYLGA
Briefly: ITC; mVAPB (wild type or mutant) in the syringe, mMIGA2^275-570 or mMIGA2^pFFAT in the cell; Microcal ITC200, 25 °C, 25 mM Tris-HCl pH 7.5, 150 mM NaCl, 4 mM β-mercaptoethanol; 20 injections of 2 μl; 1:1 binding model. The conditions noted are these: both partners purified.

In assay [5] the target is T5, mouse MIGA2 residues 275-570 S295D (mouse, UniProt Q8BK03 275-570, S295D).
T5 construct: source: E. coli BL21 (DE3), purified as the wild type (Ni2+-chelated HiTrap, tag cleaved by TEV, size exclusion chromatography)
T5 sequence (looked up): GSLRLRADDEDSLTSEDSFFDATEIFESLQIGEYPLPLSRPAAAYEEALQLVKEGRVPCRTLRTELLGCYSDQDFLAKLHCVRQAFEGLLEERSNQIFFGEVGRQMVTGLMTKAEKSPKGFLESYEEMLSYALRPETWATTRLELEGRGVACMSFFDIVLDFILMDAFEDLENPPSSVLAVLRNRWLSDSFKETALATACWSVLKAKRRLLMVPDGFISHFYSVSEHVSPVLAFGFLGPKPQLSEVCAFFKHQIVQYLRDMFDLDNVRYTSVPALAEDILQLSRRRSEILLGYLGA
The assay is described as above. The note with it: both partners purified.

Assay [6] addresses T6, mouse MIGA2 residues 275-570 S292E/S295D (mouse, UniProt Q8BK03 275-570, S292E | S295D).
T6 construct: source: E. coli BL21 (DE3), purified as the wild type (Ni2+-chelated HiTrap, tag cleaved by TEV, size exclusion chromatography)
T6 sequence (looked up): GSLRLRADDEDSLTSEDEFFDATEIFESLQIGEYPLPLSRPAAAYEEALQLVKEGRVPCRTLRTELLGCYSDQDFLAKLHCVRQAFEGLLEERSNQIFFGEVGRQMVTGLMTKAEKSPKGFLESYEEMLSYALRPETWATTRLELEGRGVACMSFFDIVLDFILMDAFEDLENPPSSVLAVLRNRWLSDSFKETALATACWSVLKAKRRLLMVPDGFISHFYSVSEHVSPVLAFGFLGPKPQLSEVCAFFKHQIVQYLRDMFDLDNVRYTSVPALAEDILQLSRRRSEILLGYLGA
The description is as above. The note with it: both partners purified.

Assay [7] concerns the target B4. Described as above. The conditions noted are these: both partners purified.
For assay [8], the target named is B5. Briefly: cell-based or functional assay.
In assay [9] the target is T7, MSP domain of mouse VAPB (residues 1-125) K43L/K45L (mouse, UniProt Q9QY76 1-125, K43L | K45L).
T7 construct: VAPB, Mus musculus, MSP domain, residues 1-125, with K43L and K45L; also called mVAPB K43L/K45L
Briefly: ITC; mVAPB (wild type or mutant) in the syringe, mMIGA2^275-570 or mMIGA2^pFFAT in the cell; Microcal ITC200, 25 °C, 25 mM Tris-HCl pH 7.5, 150 mM NaCl, 4 mM β-mercaptoethanol; 20 injections of 2 μl; 1:1 binding model. The note with it: both partners purified.

In assay [10] the target is T8, MSP domain of mouse VAPB (residues 1-125) K87L/K118L (mouse, UniProt Q9QY76 1-125, K87L | K118L).
T8 construct: VAPB, Mus musculus, MSP domain, residues 1-125, with K87L and K118L; also called mVAPB K87L/K118L
Described as above. The conditions noted are these: both partners purified.

For assay [11], the target named is T9, mouse MIGA2 residues 275-570, S292E (mouse (Mus musculus), UniProt Q8BK03 275-570, S292E).
T9 construct: also called S292E phosphorylation mimic mutant; source: E. coli BL21 (DE3), purified (Ni2+-chelated HiTrap, TEV cleavage, SEC)
T9 sequence (looked up): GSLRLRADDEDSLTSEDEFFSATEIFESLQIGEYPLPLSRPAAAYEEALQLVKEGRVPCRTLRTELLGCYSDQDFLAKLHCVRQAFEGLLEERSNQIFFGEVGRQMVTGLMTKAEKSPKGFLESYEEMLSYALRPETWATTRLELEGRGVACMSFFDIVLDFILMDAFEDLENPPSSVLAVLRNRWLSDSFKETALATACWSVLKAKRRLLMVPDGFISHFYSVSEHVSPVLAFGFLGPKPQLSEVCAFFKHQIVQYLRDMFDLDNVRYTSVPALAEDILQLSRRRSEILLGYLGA
Briefly: ITC; Microcal ITC200, 25 °C, buffer C (25 mM Tris-HCl pH 7.5, 150 mM NaCl, 4 mM β-mercaptoethanol); 20 injections of 2 μl; 1:1 binding model. The note with it: both partners purified.

Assay [12] addresses T10, mouse MIGA2 residues 275-570, S295D (mouse (Mus musculus), UniProt Q8BK03 275-570, S295D).
T10 construct: also called S295D phosphorylation mimic mutant; source: E. coli BL21 (DE3), purified (Ni2+-chelated HiTrap, TEV cleavage, SEC)
T10 sequence (looked up): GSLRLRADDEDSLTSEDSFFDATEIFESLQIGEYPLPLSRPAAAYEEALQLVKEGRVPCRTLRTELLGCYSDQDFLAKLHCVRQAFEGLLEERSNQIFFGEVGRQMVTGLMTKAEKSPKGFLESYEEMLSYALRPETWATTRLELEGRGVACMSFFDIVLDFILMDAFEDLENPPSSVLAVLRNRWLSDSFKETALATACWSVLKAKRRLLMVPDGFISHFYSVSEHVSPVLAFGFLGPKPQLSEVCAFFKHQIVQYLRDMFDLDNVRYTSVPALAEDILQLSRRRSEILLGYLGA
Described as above. The conditions noted are these: both partners purified.

The target in assay [13] is B3. The assay is described as above. The note with it: both partners purified.

T2 sequence (Q9QY76 1-125 K43L/K45L): as the sequence (Q9QY76 1-125 K87L/K118L) above, with K43L, K45L, L87K, L118K counted along it

Turning to `CCCCCCCCCCCCCCCC(=O)OC[C@H](COP(=O)([O-])OCC[N+](C)(C)C)OC(=O)CCCCCCCCCCCNc1ccc([N+](=O)[O-])c2nonc12` [NBD-PC, 1-palmitoyl-2-{12-[(7-nitro-2-1,3-benzoxadiazol-4-yl)amino]dodecanoyl}-sn-glycero-3-phosphocholine], the “preloading, glutathione bead wash, Clear Native-PAGE fluorescence” value at zMiga2-GST is recorded as “The NBD-PC bound zMiga2 was incubated with natural lipids across a range of concentrations”.

B1: phosphorylated FFAT motif peptide of mouse MIGA2 (residues 289-298) (peptide)
peptide: Ac-SED[pS]FF[pS]ATE-NH2
SMILES: CC(=O)N[C@@H](CO)C(=O)N[C@@H](CCC(=O)O)C(=O)N[C@@H](CC(=O)O)C(=O)N[C@@H](COP(=O)(O)O)C(=O)N[C@@H](Cc1ccccc1)C(=O)N[C@@H](Cc1ccccc1)C(=O)N[C@@H](COP(=O)(O)O)C(=O)N[C@@H](C)C(=O)N[C@H](C(=O)N[C@@H](CCC(=O)O)C(N)=O)[C@@H](C)O
notes: also called mMIGA2^pFFAT; phosphorylated FFAT peptide; source: synthetic peptide, purified by HPLC
In turn, B1 gave a dissociation constant (Kd) in [1] of 1.7 ± 0.2 µM. Moreover, the “fold lower binding affinity than wild type mVAPB” value in assay [2] is 5 fold; in assay [3], 3 fold.

B2: MSP domain of mouse VAPB (residues 1-125) (domain or fragment, UniProt Q9QY76 1-125, looked up)
chain: MAKVEQVLSLEPQHELKFRGPFTDVVTTNLKLGNPTDRNVCFKVKTTVPRRYCVRPNSGVIDAGASLNVSVMLQPFDYDPNEKSKHKFMVQSMFAPPDTSDMEAVWKEAKPEDLMDSKLRCVFEL
notes: vesicle-associated membrane protein-associated protein B/C (VAPB), Mus musculus, MSP domain, residues 1-125; Cloned into pGEX-6P-1; the pull-down used a GST-fused form, which is not this molecule; also called mVAPB; mVAPB WT
With B2, the “stoichiometry N” value amounted to 0.633 ± 0.071 in assay [4], 0.501 ± 0.013 in assay [5], 0.658 ± 0.009 in assay [6] and 0.755 ± 0.07 in assay [7].
As to B3, in [8], the “liposome particle size by DLS: donor liposomes pre-anchored with His-mVAPB mixed with acceptor liposomes pre-anchored with His-mMIGA2^275-570 (S292E/S295D), compared with wild-type His-mMIGA2^275-570” value was about 5 fold.
With B4, the values for the Kd in assay [9] and in assay [10] were 8.6 ± 1.4 µM and 5 ± 0.4 µM, respectively.
For the molecule B5, the dissociation constant (Kd) in assay [11] is 26.4 ± 6.8 µM; in assay [12], 8.1 ± 1.5 µM; in [13] it was 2.5 ± 0.3 µM.

In general, Kd refers to a measure of binding affinity in units of concentration. Higher therefore signals lower affinity. As usually defined, the stoichiometry N is the number of molecules, sites or subunits per partner or assembly.
